Experimental findings from patent US11225653B2, “Methods and compounds for reducing threonyl-tRNA synthetase activity” (University of Vermont and State Agricultural College, priority 2012, dated 2022) are described below.

For assay [1], the target named is T1, human TARS (Homo sapiens, UniProt P26639).
T1 construct: His6 (N); made in house; host or cells: E. coli Rosetta 2(DE3)pLysS, plasmid pET28a hctThrRS
T1 sequence (P26639 1-723): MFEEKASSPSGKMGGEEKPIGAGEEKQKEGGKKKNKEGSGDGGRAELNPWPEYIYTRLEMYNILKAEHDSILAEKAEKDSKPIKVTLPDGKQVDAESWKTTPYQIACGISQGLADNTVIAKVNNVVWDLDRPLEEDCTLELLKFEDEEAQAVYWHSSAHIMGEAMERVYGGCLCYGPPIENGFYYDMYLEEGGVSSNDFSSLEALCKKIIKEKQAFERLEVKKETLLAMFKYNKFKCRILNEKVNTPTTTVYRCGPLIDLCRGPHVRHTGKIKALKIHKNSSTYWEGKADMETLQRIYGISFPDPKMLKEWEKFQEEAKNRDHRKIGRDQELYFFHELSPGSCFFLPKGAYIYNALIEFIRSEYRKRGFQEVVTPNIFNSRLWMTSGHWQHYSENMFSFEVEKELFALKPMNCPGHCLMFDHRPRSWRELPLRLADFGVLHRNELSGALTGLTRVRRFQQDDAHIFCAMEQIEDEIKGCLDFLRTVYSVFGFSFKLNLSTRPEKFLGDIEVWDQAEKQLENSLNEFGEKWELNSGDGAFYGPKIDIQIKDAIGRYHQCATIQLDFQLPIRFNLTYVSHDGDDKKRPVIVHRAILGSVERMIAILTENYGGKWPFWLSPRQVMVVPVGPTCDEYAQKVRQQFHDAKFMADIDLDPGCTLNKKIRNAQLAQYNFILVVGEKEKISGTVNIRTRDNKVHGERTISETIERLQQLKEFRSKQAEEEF
The assay can be described thus: GTPase assay (GTP hydrolysis). Format: biochemical. As to conditions: 10 μM BC194 or 10 μM borrelidin.

Assay [2] addresses T1, human TARS. The assay can be described thus: Ap4A formation assay. The class given is biochemical. The settings on record: FIGS. 17C and 17D, 10 μM compound. The method, then: (§1) TARS purification and active site determination were performed as previously described (Williams, Mirando et al., 2013). TARS non-canonical catalytic activities were characterized using modifications from published methods (Guo, Chong et al. 2009). For Ap4A reactions 5 μM of wildtype TARS or R442A TARS were incubated for 10 minutes on ice with 2 mM threonine, and 10 μM BC194 or borrelidin as indicated in FIG. 17C. Reactions were initiated using 2 mM ATP with trace amounts of [α-^32P]-ATP as label. At specific time points aliquots were quenched in 3 volumes of 0.1% SDS, 400 mM sodium acetate and resolved on polyethyleneimine-cellulose plates by thin-layer chromatography (TLC) in 3 M NH4 (SO4)2 and 2% EDTA. Radioactive counts were identified by phosphorimaging and products quantified as fractions of total ATP added. The quantitation of product was normalized to take into account the fact that each Ap4A molecule has two equivalents of radioactive phosphorus.

Another assay concerns HUVEC. The assay can be described thus: Transwell migration assay. The class given is cell-based, human. As to conditions: 4 h. The method, then:
Transwell Migration Assay—Migration was assessed using transwell inserts (Svensson, Kucharzewska et al. 2011). HUVEC cultures were serum-depleted overnight in Clonetics® EGM®-2 modified with 0.2% fetal bovine serum then 5×10^4 cells were plated in 90% EBM®-2, 10% EGM®-2 in the upper chamber of 0.2% gelatin-coated 24-well 8 μm Transwell® inserts (Corning, Tewksbury, Mass.) with 90% EBM®-2, 10% EGM®-2 media plus 50 ng/ml VEGF, 1-100 nM TARS protein, or 10 nM BC194 in the lower chamber. Cultures were incubated for 4 h, fixed in 10% formalin, and stained with 10 μg/ml DAPI solution (Roche) following removal of cells from the top layer of the chamber with a cotton swab. Migrated cells were imaged using a 4× objective on the Olympus 1×70 Inverted microscope (Olympus). DAPI-stained nuclei were counted using ImageJ software.

The test system of assay [3] is Human umbilical vein endothelial cells (HUVECs). Put plainly: In vitro endothelial tube formation assay. Format: cell-based. The procedure: In vitro Tube Formation Assay-Tube formation assays were performed as described (Arnaoutova and Kleinman 2010; Cassavaugh, Hale et al. 2011). Human Umbilical Vein Endothelial Cells (HUVECs) were seeded in 48-well plates (1.5×10^4 cells/well) coated with 100 μl of Matrigel™ Basement Membrane Matrix Growth Factor Reduced (BD Biosciences, San Jose, Calif.) and incubated in Clonetics® EGM®-2 complete media (Lonza, Annandale, N.J.) or EGM®-2 with reduced serum (0.2% fetal bovine serum). Cells were incubated at 37° C. for 6 h then fixed in 10% formalin. Fixed samples were imaged by phase-contrast microscopy or stained with Oregon Green 488 Phalloidin (Molecular Probes, Eugene, Oreg.) then imaged with fluorescence microscopy (2× objective). Number of tubes and tube lengths (in pixels) were quantified using the Simple Neurite Tracer (Longair, Baker et al. 2011) plug-in on ImageJ software (NIH). Statistical analysis of one-way ANOVA was performed with GraphPad Software. Multiple comparisons were performed using the Tukey Test.

In another assay the test system is HUVECs. Put plainly: Endothelial cell proliferation assay (alamarBlue). Format: cell-based, human. The method, then: Endothelial Cell Proliferation Assay—The […] alamarBlue® (Invitrogen) reagent was used to assess cell proliferation (Ahmed, Gogal et al. 1994). HUVECs were seeded in a 96-well dish (1×10^3 cells/well) and grown for 48 h in EGM®-2 media. Cells were incubated in 0.2% FBS EGM®-2 media or EGM®-2 complete media as indicated; VEGF (50 ng/ml) and media alone served as controls. After 48 h, 72 h, or 96 h in culture, 10 μl/well premixed alamarBlue® (Invitrogen) was added and after 3 h at 37° C. the amount of reduced alamarBlue® was quantified by fluorescence (excitation at 530 nm, emission at 590 nm) on a microplate reader (Synergy™ HT, BioTek, Winooski, Vt.).
On the technique in general: Resazurin is reduced to fluorescent resorufin, in cell work by metabolically active cells.

For assay [4], the system named is chorioallantoic membrane (CAM). Put plainly: Chick chorioallantoic membrane (CAM) assay. The class given is in vivo, chicken. The method, then:
Chick Chorioallantoic Membrane Assay-Fertilized chicken eggs (Sunrise Farms, Catskill, N.Y.) day 1-2 post-laying were incubated in a humidified incubator at 37° C. for 72 h. Cleaned eggs were cracked and plated in a sterile 10 cm^2 tissue culture-treated dish and incubated at 37° C. for another 7 days. On developmental day 10, 1 mm^3 sterile gelatin sponge pieces (Surgifoam®; Johnson & Johnson Wound Management, Somerville, N.J.) were placed within the outer one-third of the membrane between large vessels. 40 μg/ml human bFGF and 2 μg/mL human VEGF were used as pro-angiogenic control compounds; 100 μg/mL retinoic acid (Sigma-Aldrich, St. Louis, Mo.) diluted in phosphate-buffered saline (PBS) was used as an angiostatic control. All compounds were applied in 10 μl to the CAM every 24 h for 72 h. Images were taken using a Leica MZ6 stereomicroscope every 24 h. Compounds were scored according to a modified version of Intensity Scoring as previously described (Ribatti, Nico et al. 2006). Briefly, each experimental condition was given a blinded score from 0-5 based on the change in the extent of vessel convergence and formation in proximity to the sponge from day 0 to day 3. Total score is averaged individual experimental condition scores from at least 15 replicates.
Fertilized chicken embryos were cultured ex-ova and, starting at developmental day 10, agents were applied daily to gelfoam sponges on the CAM. Images were recorded daily over 72 h and scored blindly according to a modified version Intensity Scoring as previously described (Ribatti, Nico et al. 2006). Additional details regarding methods are provided in the Methods and Materials section of Example 1.

In assay [5] the test system is human TARS. Put plainly: GTPase assay (GTP hydrolysis). Format: biochemical. The settings on record: 2 mM GTP.
For assay [6], the system named is human TARS. Put plainly: Ap4A formation assay. As to conditions: 5 μM enzyme, 2 mM threonine, 2 mM ATP. The class given is biochemical. The method, then: as §1
Assay [7] relates to human TARS. Put plainly: Ap4G formation assay. The class given is biochemical. The settings on record: 2 mM ATP, 2 mM threonine, 2 mM GTP.
Assay [8] relates to human TARS. Put plainly: Steady state aminoacylation assay. The class given is biochemical. As to conditions: purified protein. The method, then: Steady State Aminoacylation Assay-The aminoacylation activities of the TARS constructs were determined using modifications to established procedures ([…] et al 2008). Briefly, reaction mixtures consisted of 20 mM Tris-HCl pH 8.0, 100 mM KCl, 10 mM MgCl2, 1 mM dithiothreitol, 2 mM ATP, 2.5 U pyrophosphatase (Roche), 80 μM threonine, 20 μM [14C]-threonine, and 5 μM of E. coli or human […]. Reactions were initiated with the addition of 0.25-0.75 μM TARS and run at 37° C. Aliquots were taken at varying time points and spotted onto Whatmann 3MM paper filters pre-soaked in 5% trichloroacetic acid (TCA). Upon completion, the filters were washed 3 times in excess TCA, once in 95% ethanol, and dried under a heating lamp. The formation of […] was detected by scintillation counter and the activity determined by linear regression of […] formed per active site per unit time.

Entries after “also recorded” stand apart in the source; their conditions may differ.

In the case of `C[C@@H]1C[C@H](C)C[C@H](C)[C@@H](O)CC(=O)O[C@H]([C@@H]2CC[C@H]2C(=O)O)C/C=C/C=C(/C#N)[C@H](O)[C@@H](C)C1` [BC194, reference compound], at human TARS [1], the “change of TARS GTPase activity upon treatment” value is reported as “no observable change”. The “inhibition of Ap4A and Ap4G synthesis (in words)” value on human TARS [2] is “at least partially inhibited”. The “effect on VEGF- and TARS-mediated migration” value in the assay with HUVEC (10 nM BC194 with 50 ng/ml VEGF or 100 nM TARS) was “reduced both the migration effects of VEGF and TARS”. In addition, in assay [3] (HUVECs on Matrigel, range of BC194 concentrations), the “tube (branch) length” value was “does not affect endothelial tube branch length”. For the same molecule, in the assay with HUVECs (10 nM BC194, 50 ng/ml VEGF, low serum media), the “effect on VEGF proliferative response” value is “did not significantly reduce the VEGF proliferative response”. Besides, the “inhibition of vessel formation on the CAM” value in [4] (daily application to gel sponge, basal, bFGF (40 μg/ml) or VEGF (2 μg/ml) stimulated) is “inhibited vessel formation at both the basal level and after stimulation with either bFGF or VEGF”.
As to `C[C@@H]1C[C@H](C)C[C@H](C)[C@@H](O)CC(=O)O[C@H]([C@@H]2CCC[C@H]2C(=O)O)C/C=C/C=C(/C#N)[C@H](O)[C@@H](C)C1` [borrelidin, reference compound], the “change of TARS GTPase activity upon treatment” value at human TARS [1] was “no observable change”. The “inhibition of Ap4A and Ap4G synthesis (in words)” value against human TARS [2] was “at least partially inhibited”.

B1: TARS: N-terminal His6-tagged human threonyl-tRNA synthetase expressed and purified from E. coli (protein, UniProt P26639 1-723, looked up)
Threonine--tRNA ligase 1, …: T1 sequence (P26639 1-723)
modifications: N-terminal His6 tag
notes: N-terminal His6-tagged human threonyl-tRNA synthetase expressed and purified from E. coli
With B1, the GTP hydrolysis in the assay on human TARS [5] amounted to 0.3033 GDP/active site/min. Further, the “production of Ap4A” value in the assay on human TARS [6] is listed as 0.1391 Ap4A/active site/min. In the assay with HUVEC (100 nM TARS or 100 nM LARS in migration compartment), the “migration of endothelial cells” value was “significantly increased migration of endothelial cells; also recorded: selectively induces migration of endothelial cells”. Moreover, the “number of tube branches after exogenous protein” value in assay [3] (100 nM purified recombinant human TARS in low serum media (0.2% FBS), 6 h) is “significantly increased the number of tube branches; also recorded: promotes angiogenesis”. Also, the “rate of Ap4G formation” value in the assay on human TARS [7] was 0.1639 Ap4G/active site/min. For the same molecule, the “aminoacylation activity of the protein” value with human TARS [8] is reported as “exhibits aminoacyl synthetase activity”. For the same molecule, the “cell proliferation with TARS” value with HUVECs (HUVECs in low serum (0.2% FBS) media) is “did not exert a significant effect on cell proliferation; also recorded: does not significantly affect cell proliferation”. Also, the “sensitivity of protein-stimulated CAM vessel formation to BC194” value in [4] (protein applied together with BC194) is “sensitive to BC194”. Also, the “vessel formation / vascularization on the CAM after applied protein” value in assay [4] (purified protein applied daily to sponge, scored over 72 h) is “stimulated vessel formation; also recorded: induces in vivo angiogenesis”.
